Measured values from patent publication US20260158160A1 (MACFARLANE BURNET INSTITUTE FOR MEDICAL RESEARCH AND PUBLIC …, published 2026).
Values joined by “and” are separate entries in the source; they are usually repeats but may differ in a detail not shown here. Identical values can stand only once. Like-named read-outs stand apart in the source and are kept apart here.

Tests used:
SARS-CoV-2 RBD-Ig [1] = target: T1, SARS-CoV-2 RBD-Ig (SARS-CoV-2; mouse, UniProt P0DTC2 319-541)
[2] = target: SARS-CoV-2 spike protein on virus (CoV/Australia/VIC01/2020) (SARS-CoV-2, UniProt P0DTC2 14-1273); assay: cell-based or functional assay
[3] = target: SARS-CoV-2 spike protein expressed on Ramos-S cells (SARS-CoV-2, UniProt P0DTC2 14-1273)
SARS-CoV-2 RBD-Ig [4] = target: T1, SARS-CoV-2 RBD-Ig; assay: ELISA: ACE2-Fc titrated on immobilised RBD-Ig (A450), curve fit

B1: EflACE2-Fc-H429Y (Fc fusion)
chain: ETGSTIEEQAKYFLDKFNHEAEDLFYQSSLASWNYNTNITEENVQNMNNAGDKWSAFLKEQSTTAQMYPLQEIQNLTVKLQLQALQQNGSSVLSEDKSKRLNTILNTMSTIYSTGKVCNPDNPQECLLLEPGLNEIMANSLDYNERLWAWESWRSEVGKQLRPLYEEYVVLKNEMARANHYEDYGDYWRGDYEVNGVDGYDYSRGQLIEDVEHTFEEIKPLYEHLHAYVRAKLMNAYPSYISPIGCLPAHLLGDMWGRFWTNLYSLTVPFGQKPNIDVTDAMVDQAWDAQRIFKEAEKFFVSVGLPNMTQGFWEYSMLTDPGNVQKAVCHPTAWDLGKGDFRILMCTKVTMDDFLTAHHEMGHIQYDMAYAAQPFLLRNGANEGFHEAVGEIMSLSAATPKHLKSIGLLSPDFQEDNETEINFLLKQALTIVGTLPFTYMLEKWRWMVFKGEIPKDQWMKKWWEMKREIVGVVEPVPHDETYCDPASLFHVSNDYSFIRYYTRTLYQFQFQEALCQAAKHEGPLHKCDISNSTEAGQKLFNMLRLGKSEPWTLALENVVGAKNMNVRPLLNYFEPLFTWLKDQNKNSFVGWSTDWSPYADQSIKVRISLKSALGDRAYEWNDNEMYLFRSSVAYAMRQYFLKVKNQMILFGEEDVRVANLKPRISFNFFVTAPKNVSDIIPRTEVEKAIRMSRSRINDAFRLNDNSLEFLGIQPTLGPPNQPPVSGGGGSTHTCPPCPAPELLGGPSVFLFPPKPKDTLMISRTPEVTCVVVDVSHEDPEVKFNWYVDGVEVHNAKTKPREEQYNSTYRVVSVLTVLHQDWLNGKEYKCKVSNKALPAPIEKTISKAKGQPREPQVYTLPPSREEMTKNQVSLTCLVKGFYPSDIAVEWESNGQPENNYKTTPPVLDSDGSFFLYSKLTVDKSRWQQGNVFSCSVMYEALHNHYTQKSLSLSPGK
notes: also called EflACE2-Fc-H429Yoli; Yoli
In the case of B1, the EC50 (SARS-CoV-2 RBD-Ig [1]) is reported as 0.38 nM and 0.6 nM and the “fold of neutralisation activity over unfused trACE2” value [2] is reported as > 600 fold.

B2: EflACE2-Fc-H429F (Fc fusion)
chain: ETGSTIEEQAKYFLDKFNHEAEDLFYQSSLASWNYNTNITEENVQNMNNAGDKWSAFLKEQSTTAQMYPLQEIQNLTVKLQLQALQQNGSSVLSEDKSKRLNTILNTMSTIYSTGKVCNPDNPQECLLLEPGLNEIMANSLDYNERLWAWESWRSEVGKQLRPLYEEYVVLKNEMARANHYEDYGDYWRGDYEVNGVDGYDYSRGQLIEDVEHTFEEIKPLYEHLHAYVRAKLMNAYPSYISPIGCLPAHLLGDMWGRFWTNLYSLTVPFGQKPNIDVTDAMVDQAWDAQRIFKEAEKFFVSVGLPNMTQGFWEYSMLTDPGNVQKAVCHPTAWDLGKGDFRILMCTKVTMDDFLTAHHEMGHIQYDMAYAAQPFLLRNGANEGFHEAVGEIMSLSAATPKHLKSIGLLSPDFQEDNETEINFLLKQALTIVGTLPFTYMLEKWRWMVFKGEIPKDQWMKKWWEMKREIVGVVEPVPHDETYCDPASLFHVSNDYSFIRYYTRTLYQFQFQEALCQAAKHEGPLHKCDISNSTEAGQKLFNMLRLGKSEPWTLALENVVGAKNMNVRPLLNYFEPLFTWLKDQNKNSFVGWSTDWSPYADQSIKVRISLKSALGDRAYEWNDNEMYLFRSSVAYAMRQYFLKVKNQMILFGEEDVRVANLKPRISFNFFVTAPKNVSDIIPRTEVEKAIRMSRSRINDAFRLNDNSLEFLGIQPTLGPPNQPPVSGGGGSTHTCPPCPAPELLGGPSVFLFPPKPKDTLMISRTPEVTCVVVDVSHEDPEVKFNWYVDGVEVHNAKTKPREEQYNSTYRVVSVLTVLHQDWLNGKEYKCKVSNKALPAPIEKTISKAKGQPREPQVYTLPPSREEMTKNQVSLTCLVKGFYPSDIAVEWESNGQPENNYKTTPPVLDSDGSFFLYSKLTVDKSRWQQGNVFSCSVMFEALHNHYTQKSLSLSPGK
notes: also called EflACE2-Fc F
Binder B2 has an EC50 [3] of 2.1 nM and an EC50 (SARS-CoV-2 RBD-Ig [4]) of 0.21 nM.
